Test system: small intestinal immune cells
Test: Droplet-based scRNA-seq of small intestinal immune cells (LP and PP), OVA vs PBS, clustering and differential expression
Type: in vivo, mouse
Conditions: for percentage of expressing cells in OVA-treated group / LN (average fold change): cluster ID 12, LP
From the text: To comprehensively characterize small intestinal immune cells, Applicants generated scRNA-Seq profiles for 58,067 immune cells collected from lamina propria (LP) and Peyer's patch (PP) regions at steady state and after induction of a type 2 inflammatory reaction to ovalbumin (OVA) (Brandt et al., 2003) (FIGS. 1A and 8A). To ensure sufficient representation of rare cells, Applicants combined a normalization strategy—removing by flow sorting either a portion of IgD+ naïve B cells, which are the most abundant cell type in PPs, or all CD19+ and CD3+ T cells (FIG. 8B, Methods)—with profiling of a sufficiently large number of cells number (P>0.99 to recover at least 15 cells from each cluster, Methods) by massively parallel scRNA-seq (Haber et al., 2017) (Methods). Applicants obtained 36,797 and 21,270 high quality cells passing initial filtering (Methods) from PP and LP regions, respectively.
Overall, Applicants annotated 27 cell subsets across the two compartments, spanning T cells, B cells, ILCs, dendritic cells (DCs), myeloid cells and stromal cells, in frequencies ranging from 0.07% to 14%. Briefly, Applicants first partitioned the cells from the PP regions by unsupervised clustering (Methods) into 46 clusters, retained the 97% of cells that were robustly assigned cell identities in each cluster (Methods), assigned the cells from the LP regions to the 46 clusters using a classifier (Methods), and visualized the data with scvis (Ding et al., 2018), a deep generative model-based method (FIGS. 1B and 8C, Methods). Next, Applicants identified genes that were differentially expressed between the cells in each cluster and the remaining cells (Table 1, Methods), as well as between pairs of clusters (Table 2), to elucidate identities of similar cell types/states. Applicants excluded from downstream analysis clusters mostly consisting of contaminants from epithelium, likely doublets, or cells with a small number of Unique Molecular Identifiers (UMIs) (FIGS. 1C and 8D), or lacking distinct markers (Methods). Altogether, Applicants retained 27 clusters spanning 85% of the cells and each associated with distinct marker genes (FIG. 8E, Methods).
To induce allergic reaction to OVA, 6 to 7 weeks old mice were sensitized twice, two weeks apart, with 50 μg of OVA plus 1 mg of aluminum potassium sulfate adjuvant via intraperitoneal injection. Two weeks later, mice were orally administered with 50 mg of OVA on every other day for a total of five times. 1 μg of α-CGRP peptide was administered simultaneously when indicated. Mice were deprived of food for 3-4 hours in cages with wood chip bedding for limiting antigen degradation in the stomach before each intragastric challenge.
Isolation of cells from Peyer's patches (PPs). Peyer's patches (PPs) were carefully dissected from the small intestine under a stereo microscope using a fine scissor, pierced once with a fine forcep. Tissues were digested in freshly made digestion buffer (RPMI-1640 containing 100 μg/ml Liberase™ and 50 μg/ml DNase I at 37° C. on a roto-mixer. After 15 min, tissues were very gently mixed using a 1 ml pipette. The supernatant was collected and added to ice-cold MACS buffer (pH 7.4; PBS plus 2% FCS and 2 mM EDTA). Pre-warmed (37° C.) fresh digestion buffer was added to the remaining tissues. After rotation at 37° C. for 15 min, the mixture was vigorously mixed using a 1 ml pipette for 1 min. Supernatants from the two steps were combined and passed through 70 μm filters and stained for FACS (below).
Isolation of cells from the lamina propria (LP). The small intestines were opened longitudinally and washed in ice-cold PBS. For scRNA-seq, roughly 0.5 cm of fragments from each of the distal, middle and proximal regions without visible PPs were collected. Epithelial cells were dissociated by tissue rotation in pre-warmed (37° C.) PBS containing 10 mM EDTA at 37° C. for 15 min, followed by additional incubation on ice for 15 min. Tissues were then shaken vigorously. […]

B1: OVA (protein, UniProt P01012 2-386, looked up)
Ovalbumin: GSIGAASMEFCFDVFKELKVHHANENIFYCPIAIMSALAMVYLGAKDSTRTQINKVVRFDKLPGFGDSIEAQCGTSVNVHSSLRDILNQITKPNDVYSFSLASRLYAEERYPILPEYLQCVKELYRGGLEPINFQTAADQARELINSWVESQTNGIIRNVLQPSSVDSQTAMVLVNAIVFKGLWEKAFKDEDTQAMPFRVTEQESKPVQMMYQIGLFRVASMASEKMKILELPFASGTMSMLVLLPDEVSGLEQLESIINFEKLTEWTSSNVMEERKIKVYLPRMKMEEKYNLTSVLMAMGITDVFSSSANLSGISSAESLKISQAVHAAHAEINEAGREVVGSAEAGVDAASVSEEFRADHPFLFCIKHIATNAVLFFGRCVSP
Rilpl2: LN (average fold change) (cluster ID 6, PP, OVA vs PBS): −0.158
Rnase6: LN (average fold change) (cluster ID 6, PP, OVA vs PBS): 0.160
Rnf19b: LN (average fold change) (cluster ID 6, PP, OVA vs PBS): −0.314
Rpn2: LN (average fold change) (cluster ID 6, PP, OVA vs PBS): 0.272
Runx3: LN (average fold change) (cluster ID 6, PP, OVA vs PBS): −0.200
S1pr4: LN (average fold change) (cluster ID 6, PP, OVA vs PBS): 0.331
Sell: LN (average fold change) (cluster ID 6, PP, OVA vs PBS): 0.172
Selplg: LN (average fold change) (cluster ID 6, PP, OVA vs PBS): 0.183
Sf3b1: LN (average fold change) (cluster ID 6, PP, OVA vs PBS): 0.237
Siah2: LN (average fold change) (cluster ID 6, PP, OVA vs PBS): −0.303
Skil: LN (average fold change) (cluster ID 6, PP, OVA vs PBS): −0.246
Sla2: LN (average fold change) (cluster ID 6, PP, OVA vs PBS): 0.243
Smc6: LN (average fold change) (cluster ID 6, PP, OVA vs PBS): −0.180
Socs3: LN (average fold change) (cluster ID 6, PP, OVA vs PBS): 0.385
Spsb2: LN (average fold change) (cluster ID 6, PP, OVA vs PBS): −0.508
Tgif1: LN (average fold change) (cluster ID 6, PP, OVA vs PBS): −0.548
Tnfaip8l2: LN (average fold change) (cluster ID 6, PP, OVA vs PBS): 0.307
Traf4: LN (average fold change) (cluster ID 6, PP, OVA vs PBS): −0.199
Trim25: LN (average fold change) (cluster ID 6, PP, OVA vs PBS): −0.239
VgIl4: LN (average fold change) (cluster ID 6, PP, OVA vs PBS): −0.419
Vps37b: LN (average fold change) (cluster ID 6, PP, OVA vs PBS): −0.292
Wnk1: LN (average fold change) (cluster ID 6, PP, OVA vs PBS): −0.262
Zc3h12a: LN (average fold change) (cluster ID 6, PP, OVA vs PBS): −0.495
Zfand5: LN (average fold change) (cluster ID 6, PP, OVA vs PBS): −0.220
Zfp36l2: LN (average fold change) (cluster ID 6, PP, OVA vs PBS): 0.365
percentage of expressing cells in OVA-treated group (gene Abhd17c): 0.52
LN (average fold change) (gene Abhd17c, OVA vs PBS): 0.599
percentage of expressing cells in OVA-treated group (gene Arf6): 0.429
LN (average fold change) (gene Arf6, OVA vs PBS): 0.610
percentage of expressing cells in OVA-treated group (gene Arl4a): 0.256
LN (average fold change) (gene Arl4a, OVA vs PBS): 0.781
percentage of expressing cells in OVA-treated group (gene Arl5c): 0.04
LN (average fold change) (gene Arl5c, OVA vs PBS): −1.873
percentage of expressing cells in OVA-treated group (gene Arpc2): 0.769
LN (average fold change) (gene Arpc2, OVA vs PBS): 0.318
percentage of expressing cells in OVA-treated group (gene BC031181): 0.365
LN (average fold change) (gene BC031181, OVA vs PBS): −0.512
percentage of expressing cells in OVA-treated group (gene Cbarp): 0.193
LN (average fold change) (gene Cbarp, OVA vs PBS): 0.886
percentage of expressing cells in OVA-treated group (gene Ccl1): 0.203
LN (average fold change) (gene Ccl1, OVA vs PBS): 1.335
percentage of expressing cells in OVA-treated group (gene Ccrl2): 0.192
LN (average fold change) (gene Ccrl2, OVA vs PBS): −0.742
percentage of expressing cells in OVA-treated group (gene Cd52): 0.581
LN (average fold change) (gene Cd52, OVA vs PBS): 0.644
percentage of expressing cells in OVA-treated group (gene Cited2): 0.176
LN (average fold change) (gene Cited2, OVA vs PBS): −0.724
percentage of expressing cells in OVA-treated group (gene Cntnap2): 0.074
LN (average fold change) (gene Cntnap2, OVA vs PBS): −1.008
percentage of expressing cells in OVA-treated group (gene Coq10b): 0.332
LN (average fold change) (gene Coq10b, OVA vs PBS): −0.690
percentage of expressing cells in OVA-treated group (gene Cox8a): 0.798
LN (average fold change) (gene Cox8a, OVA vs PBS): 0.285
percentage of expressing cells in OVA-treated group (gene Cwc25): 0.061
LN (average fold change) (gene Cwc25, OVA vs PBS): −1.439
percentage of expressing cells in OVA-treated group (gene Cycs): 0.531
LN (average fold change) (gene Cycs, OVA vs PBS): 0.561
percentage of expressing cells in OVA-treated group (gene Ddx5): 0.886
LN (average fold change) (gene Ddx5, OVA vs PBS): −0.276
percentage of expressing cells in OVA-treated group (gene Dtx1): 0.05
LN (average fold change) (gene Dtx1, OVA vs PBS): −1.600
percentage of expressing cells in OVA-treated group (gene Eef1a1): 0.997
LN (average fold change) (gene Eef1a1, OVA vs PBS): 0.236
percentage of expressing cells in OVA-treated group (gene Eef1b2): 0.709
LN (average fold change) (gene Eef1b2, OVA vs PBS): 0.395
percentage of expressing cells in OVA-treated group (gene Eef2): 0.927
LN (average fold change) (gene Eef2, OVA vs PBS): 0.240
percentage of expressing cells in OVA-treated group (gene Eif1): 0.996
LN (average fold change) (gene Eif1, OVA vs PBS): 0.152
percentage of expressing cells in OVA-treated group (gene Eif3e): 0.67
LN (average fold change) (gene Eif3e, OVA vs PBS): 0.416
percentage of expressing cells in OVA-treated group (gene Eif3h): 0.686
LN (average fold change) (gene Eif3h, OVA vs PBS): 0.298
percentage of expressing cells in OVA-treated group (gene Emd): 0.235
LN (average fold change) (gene Emd, OVA vs PBS): −0.729
